Experimental data as given in patent US20140370037A1.

Key:
[1] = target: human DLL3 on cells (human) (UniProt Q9NYJ7); assay: cell-based or functional assay
[2] = target: human DLL3 on cells (human), Q9NYJ7; assay: cell-based or functional assay
Chain of human DLL3 on cells (human), Q9NYJ7 (Q9NYJ7 27-618): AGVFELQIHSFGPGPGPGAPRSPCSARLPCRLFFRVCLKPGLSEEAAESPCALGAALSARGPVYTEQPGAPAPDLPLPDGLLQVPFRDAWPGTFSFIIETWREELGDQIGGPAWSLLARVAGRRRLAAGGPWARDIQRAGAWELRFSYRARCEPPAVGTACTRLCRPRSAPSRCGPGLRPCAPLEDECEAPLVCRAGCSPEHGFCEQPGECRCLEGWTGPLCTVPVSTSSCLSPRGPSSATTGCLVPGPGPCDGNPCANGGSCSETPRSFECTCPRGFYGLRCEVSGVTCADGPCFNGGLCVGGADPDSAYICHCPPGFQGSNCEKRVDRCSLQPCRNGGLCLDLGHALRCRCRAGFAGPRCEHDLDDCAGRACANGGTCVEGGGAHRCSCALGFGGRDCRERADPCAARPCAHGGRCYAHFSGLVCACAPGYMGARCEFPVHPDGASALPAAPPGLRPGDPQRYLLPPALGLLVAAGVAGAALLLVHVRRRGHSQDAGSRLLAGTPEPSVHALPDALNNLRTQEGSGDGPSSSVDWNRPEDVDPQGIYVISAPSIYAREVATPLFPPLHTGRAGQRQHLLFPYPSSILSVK

Chain of human DLL3 on cells (human) (Q9NYJ7 27-618): as above

| Binder | EC50 of killing of OV26 NTX tumor cells with anti-mouse IgG Fab-saporin [1] [pM] | also measured |
| --- | --- | --- |
| SC16.15 (antibody, V domains shown) VH: QVQLQQSGAELAKPGASVKMSCKASGYTFTRYWIHWIKQRPGQGLEWIGYINPTTVYTEFNQNFKDKATLTADKSSTTASMQLSSLTSEDSAVYYCARGGSNFFDYWGQGTTLTVSS VL: DIQMTQSPASLAASVGETVAITCRASENIYYNLAWYQQKQGKSPQLLIYTANSLEDGVPSRFSGSGSGTQYSLKINSMQPEDSATYFCKQAYDVPPTFGGGTKLEIK | 0.14 |  |
| hSC16.15-ADC1 (antibody, human IgG1, V domains shown, here or on the partner: PBD dimer drug-linker ADC1 on reduced Cys residues (positions not stated)) VL: AIQLTQSPSSLSASVGDRVTITCRASENIYYNLAWYQQKPGKAPKLLIYTANSLEDGVPSRFSGSGSGTDFTLTISSLQPEDFATYFCKQAYDVPPTFGGGTKLEIK VH: QVQLVQSGAEVKKPGASVKVSCKASGYTFTRYWIHWIRQAPGQGLEWMGYINPTTVYTEFNQNFKDRVTMTRDTSTSTVYMELSSLRSEDTAVYYCARGGSNFFDYWGQGTTVTVSS |  | concentration that killed 50% of LU37 NTX cells (7 days, Cell Titer Glo) [2]: < 10 ng/mL |
| hSC16.56-ADC1 (antibody, human IgG1, V domains shown, here or on the partner: PBD dimer drug-linker ADC1 on reduced Cys residues (positions not stated)) VL: EIVMTQSPATLSVSPGERATLSCKASQSVSNDVVWYQQKPGQAPRLLIYYASNRYTGIPARFSGSGSGTEFTLTISSLQSEDFAVYYCQQDYTSPWTFGQGTKLEIKR VH: QVQLVQSGAEVKKPGASVKVSCKASGYTFTNYGMNWVRQAPGQGLEWMGWINTYTGEPTYADDFKGRVTMTTDTSTSTAYMELRSLRSDDTAVYYCARIGDSSPSDYWGQGTLVTVSS |  | dose that killed 50% of naïve KDY66 cells (7 days, Cell Titer Glo) [2]: 13.3 pM |
| SC16.34 (antibody, V domains shown) VH: QIQLVQSGPELKRPGETVKISCKASGYTFTNYGMNWVKQAPGKGLKWMGWINTYTGDPTYADDFKGRFAFSLETSASTAYLQINNLKNEDTATYFCARIGGNSPSDYWGQGTSLTVSS VL: SIVMTQTPKFLLVSAGDRVTITCKASQSVSNDVAWYQQKPGQSPKLLIYYASNRYSGVPDRFTGSGYGTDFTFTISTVQAEDLAVYFCQQDYSSPWTFGGGTKLEIK | 5.7 |  |
